One assay deals with GPIIbIIIa. Description: SPR (Langmuir binding analysis).
Another assay addresses Peptide 2. As to the kind of experiment: SPR (Langmuir binding analysis); GPIIbIIIa mimotope.
For the next assay, the target named is Peptide 1. The assay is described as above.

B1: Fibrinogen (ligand)
chain 1: ADSGEGDFLAEGGGVRGPRVVERHQSACKDSDWPFCSDEDWNYKCPSGCRMKGLIDEVNQDFTNRINKLKNSLFEYQKNNKDSHSLTTNIMEILRGDFSSANNRDNTYNRVSEDLRSRIEVLKRKVIEKVQHIQLLQKNVRAQLVDMKRLEVDIDIKIRSCRGSCSRALAREVDLKDYEDQQKQLEQVIAKDLLPSRDRQHLPLIKMKPVPDLVPGNFKSQLQKVPPEWKALTDMPQMRMELERPGGNEITRGGSTSYGTGSETESPRNPSSAGSWNSGSSGPGSTGNRNPGSSGTGGTATWKPGSSGPGSTGSWNSGSSGTGSTGNQNPGSPRPGSTGTWNPGSSERGSAGHWTSESSVSGSTGQWHSESGSFRPDSPGSGNARPNNPDWGTFEEVSGNVSPGTRREYHTEKLVTSKGDKELRTGKEKVTSGSTTTTRRSCSKTVTKTVIGPDGHKEVTKEVVTSEDGSDCPEAMDLGTLSGIGTLDGFRHRHPDEAAFFDTASTGKTFPGFFSPMLGEFVSETESRGSESGIFTNTKESSSHHPGIAEFPSRGKSSSYSKQFTSSTSYNRGDSTFESKSYKMADEAGSEADHEGTHSTKRGHAKSRPV
chain 2: QGVNDNEEGFFSARGHRPLDKKREEAPSLRPAPPPISGGGYRARPAKAAATQKKVERKAPDAGGCLHADPDLGVLCPTGCQLQEALLQQERPIRNSVDELNNNVEAVSQTSSSSFQYMYLLKDLWQKRQKQVKDNENVVNEYSSELEKHQLYIDETVNSNIPTNLRVLRSILENLRSKIQKLESDVSAQMEYCRTPCTVSCNIPVVSGKECEEIIRKGGETSEMYLIQPDSSVKPYRVYCDMNTENGGWTVIQNRQDGSVDFGRKWDPYKQGFGNVATNTDGKNYCGLPGEYWLGNDKISQLTRMGPTELLIEMEDWKGDKVKAHYGGFTVQNEANKYQISVNKYRGTAGNALMDGASQLMGENRTMTIHNGMFFSTYDRDNDGWLTSDPRKQCSKEDGGGWWYNRCHAANPNGRYYWGGQYTWDMAKHGTDDGVVWMNWKGSWYSMRKMSMKIRPFFPQQ
chain 3: YVATRDNCCILDERFGSYCPTTCGIADFLSTYQTKVDKDLQSLEDILHQVENKTSEVKQLIKAIQLTYNPDESSKPNMIDAATLKSRKMLEEIMKYEASILTHDSSIRYLQEIYNSNNQKIVNLKEKVAQLEAQCQEPCKDTVQIHDITGKDCQDIANKGAKQSGLYFIKPLKANQQFLVYCEIDGSGNGWTVFQKRLDGSVDFKKNWIQYKEGFGHLSPTGTTEFWLGNEKIHLISTQSAIPYALRVELEDWNGRTSTADYAMFKVGPEADKYRLTYAYFAGGDAGDAFDGFDFGDDPSDKFFTSHNGMQFSTWDNDNDKFEGNCAEQDGSGWWMNKCHAGHLNGVYYQGGTYSKASTPNGYDNGIIWATWKTRWYSMKKTTMKIIPFNRLTIGEGQQHHLGGAKQAGDV
As usually defined, the Kd is the concentration at which binding is half-saturated. High values mean weaker binding, low ones tighter binding. With B1, the Kd with GPIIbIIIa amounted to 10.3 nM; with Peptide 2, 334 nM; with Peptide 1, 12500 nM.

The values are drawn from US20170095421A1 (published 2017).
